{
  "source": "patent US20210079343",
  "about": "“ENDOTHELIAL CELL FACTORS AND METHODS THEREOF” (THE CHILDREN'S MEDICAL CENTER CORPORATION, published 2021)",
  "data": [
    {"molecular_target": "T1, NR2F2 (COUP-TFII) (Mus musculus, UniProt P43135 P43135:1-414)", "T1 sequence": "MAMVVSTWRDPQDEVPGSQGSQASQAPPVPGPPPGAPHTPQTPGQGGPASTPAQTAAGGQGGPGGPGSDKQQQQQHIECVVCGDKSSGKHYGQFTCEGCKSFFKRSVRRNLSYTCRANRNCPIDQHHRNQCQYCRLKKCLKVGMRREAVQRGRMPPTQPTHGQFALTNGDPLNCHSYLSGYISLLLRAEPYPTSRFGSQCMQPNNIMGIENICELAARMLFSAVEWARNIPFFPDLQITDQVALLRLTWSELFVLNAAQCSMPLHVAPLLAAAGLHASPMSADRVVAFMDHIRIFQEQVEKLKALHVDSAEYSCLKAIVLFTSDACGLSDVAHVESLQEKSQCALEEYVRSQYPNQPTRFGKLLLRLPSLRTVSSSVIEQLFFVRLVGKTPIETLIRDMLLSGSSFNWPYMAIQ", "assay": "EMSA; 4 C, 20 mM Tris pH 8.0, 10 mM KCl, 20% glycerol; super-shifted by anti-NR2F2; outcompeted by unlabeled wild-type probe", "settings": "tags: GST (pGEX2TK, E. coli BL21)", "from_the_text": "(§1) In each case, disruption of the Ets, SoxF or NHR motifs led to a significant reduction or complete loss of GFP expression in CHT ECs (see e.g., FIG. 3F). In control constructs where mutations were targeted to intervening sequences between the Ets, SoxF and NHR motifs, GFP expression was unperturbed (see e.g., FIG. 3F). Studies of arterial-venous specification in zebrafish have shown that the NHR Nr2f2, also known as COUP-TFII, promotes venous endothelial cell fate (see e.g., Aranguren et al. Transcription factor COUP-TFII is indispensable for venous and lymphatic development in zebrafish and Xenopus laevis. Biochemical and biophysical research communications 410, 121-126, 2011). To test whether Nr2f2 could directly bind the enhancer sequences, an in vitro gel electrophoretic mobility shift assay was performed. Incubation of murine NR2F2-GST protein with labeled probe from either the 125 bp mrc1a or 158 bp sele zebrafish enhancers led to DNA:protein complexes that were super-shifted upon addition of an NR2F2 antibody and could be outcompeted by an unlabeled competitor probe (see e.g., FIG. 10A-FIG. 10E).\n(§2) The Nr2f2 fragment was cloned into the pGEX2TK™ vector to generate GST-tagged Nr2f2 and fidelity was verified by sequencing. The pGEX2TK-Nr2f2 protein plasmid was transformed into E. coli BL21 competent cells. Proteins were expressed and purified, and purified proteins were quantified against BSA. EMSAs were performed. Probes were generated by annealing 100 pmol of sense and antisense oligonucleotides, and 1-2 pmol of probe was used in each reaction. Gel shift reactions were conducted at 4° C. in 20% glycerol, 20 mM Tris (pH 8.0), 10 mM KCl, 1 mM DTT, 12.5 ng poly dI/C, 6.25 pmol of random, single-stranded oligonucleotides, BSA and the probe in the amount specified above. Samples involving the Nr2f2 protein were loaded on a 6% gel to resolve protein-DNA complexes. In reactions with cold competitors, 20x unlabeled probes were included in the reactions. Anti-NR2F2 antibody (R&D Biosystems™; cat # PP-H7147-00) was at the same amount of the Nr2f2 protein to obtain super-shifts.", "values": [
      {"binder": "mrc1a site 1 wild-type (dsDNA) DNA 1: TTTATGAAGCTTGTACCTTTCATTTCCTTTTTG DNA 2: CAAAAAGGAAATGAAAGGTACAAGCTTCATAAA", "binding result": "binds"},
      {"binder": "sele wild-type (dsDNA) DNA 1: GTAATGCCCCCTGTGACCCATATTGTCTCGCTCTTTCCTTTATA DNA 2: TATAAAGGAAAGAGCGAGACAATATGGGTCACAGGGGGCATTAC", "binding result": "binds"},
      {"binder": "mrc1a site 2 wild-type (dsDNA) DNA 1: TTCATTTCCTTTTTGCTGAGCTTTATTTTC DNA 2: GAAAATAAAGCTCAGCAAAAAGGAAATGAA", "binding result": "binds"}
    ]},
    {"molecular_target": "T1, NR2F2 (COUP-TFII)", "assay": "competition; 20x unlabeled mutant unable to outcompete wild-type probe in EMSA", "settings": "tags: GST (pGEX2TK, E. coli BL21)", "from_the_text": "as §1, §2", "values": [
      {"binder": "mrc1a site 2 mutation (dsDNA) DNA 1: TTCATTTCCTTTTTGCATTAATTTATTTTC DNA 2: GAAAATAAATTAATGCAAAAAGGAAATGAA", "binding result": "no binding"},
      {"binder": "mrc1a site 1 mutation (dsDNA) DNA 1: TTTAATTAGCAGATTTAATTTCATTTCCTTTTTG DNA 2: CAAAAAGGAAATGAAATTAAATCTGCTAATTAAA", "binding result": "no binding"},
      {"binder": "sele mutation (dsDNA) DNA 1: GTAATGCCCCCTGATTAACATATTGTCTCGCTCTTTCCTTTATA DNA 2: TATAAAGGAAAGAGCGAGACAATATGTTAATCAGGGGGCATTAC", "binding result": "no binding"}
    ]}
  ]
}
